# US20090202574A1, “METHODS OF IMMUNE OR HAEMATOLOGICAL ENHANCEMENT, INHIBITING TUMOUR FORMATION OR GROWTH, AND TREATING OR PREVENTING CANCER” (priority 2004, published 2009)
# Key:
# [1] = Western blot detection of bovine lactoferrin in plasma, tumour and organs of fed mice; type: in vivo; settings: oral diet
# Procedure: Groups of 5 tumour-bearing mice were fed either the control diet or an iron-saturated bovine lactoferrin diet and treated with paclitaxel or doxorubicin, as indicated. Mice were killed on days described in Example 6 and plasma collected. Referring to FIG. 6, plasma proteins (80 μg) were separated on a 10% polyacrylamide SDS-gel, transferred to a membrane, and blotted with an antibody against bovine lactoferrin (upper panel). The relative amounts of bovine lactoferrin in each lane were recorded by densitometry (lower panel). The order of the plasma samples shown in the histograph is the same for the Western blot. A 75 kDa band characteristic of lactoferrin was present in the plasma samples taken from all the different treatment groups fed bovine lactoferrin, whereas this same band was absent from the plasma of mice fed the control diet (FIG. 6).
# Tumour homogenates and sections were screened to determine whether lactoferrin in the systemic circulation reached the tumour site. A group of 5 tumour-bearing mice were fed the control diet or an iron-saturated bovine lactoferrin diet, and treated with paclitaxel and doxorubicin. Mice were killed on days described in Example 6, and tissues from the tumour and small intestine were collected. Tumour and intestine homogenates (80 μg of protein) were separated on a 10% polyacrylamide SDS-gel, transferred to a membrane, and Western blotted with an antibody against bovine lactoferrin (upper panel of FIG. 7). The relative amounts of bovine lactoferrin in each lane were recorded by densitometry (lower panel of FIG. 7). The order of the plasma samples shown in the histograph is the same for the Western blot.
# A group of 5 tumour-bearing mice were fed an iron-saturated bovine lactoferrin diet. Mice were killed on days described in Example 6, and tissues from multiple organs, including different regions of the intestine, were collected. Organ homogenates (80 μg of protein) were separated on a 10% polyacrylamide SDS-gel, transferred to a membrane, and blotted with either an antibody against bovine lactoferrin (upper panel of FIG. 8A) or an anti-α-tubulin mAb (middle panel of FIG. 8A). Bovine lactoferrin (1 μg) was included as a standard. The relative amounts of bovine lactoferrin in each lane were recorded by densitometry (lower panel of FIG. 8A). The order of the plasma samples shown in the histograph is the same for the Western blot. […] Roughly equal amounts of bovine lactoferrin were retained by the proximal and distal regions of the small intestine, and the large intestine.
# [2] = Blood haematological profile (red and white blood cell counts); type: in vivo, mice; settings: blood from the heart at autopsy; mean
# Procedure: The red and white blood cell counts of mice sacrificed in the preceding examples were recorded. Oral feeding of bovine iron-saturated lactoferrin alone or in combination with administration of paclitaxel or doxorubicin or both increased the mean values of red and white blood cells compared to control mice and compared to mice administered paclitaxel and doxorubicin but not fed lactoferrin, as shown in Table 1.
# [3] = system: cultured EL-4 tumour cells; assay: Apoptosis of cultured EL-4 tumour cells triggered by sera of fed mice; type: cell-based, C57BL/6 mice; settings: Example 17; sera after 6 weeks of 28 g per 2.4 Kg diet; vs spontaneous apoptosis; control-diet sera 80%
# Procedure: Feeding of Fe-saturated lactoferrin releases anti-tumour factors into the systemic circulation. Fifteen 8 to 9 week-old female C57BL/6 mice were fed the control AIN-93 diet or a diet supplemented with 28 g of 100% Fe-saturated lactoferrin per 2.4 Kg of diet. Sera was collected from experimental and control mice after 6 weeks of feeding the latter diets and tested for their ability to trigger the apoptosis of cultured EL-4 tumour cells.
# Sera collected from experimental and control mice was tested for its ability to trigger the apoptosis of cultured EL-4 tumour cells. EL-4 cells (2×10^3) in 80 μl of DMEM media were incubated for 24 h in the presence or absence of 100 μl of sera that had been concentrated to 20 μl. The cells were then washed, permeabilized with a solution containing 0.1% Triton X-100 and 0.1% sodium citrate, and incubated with 20 μl of TUNEL reagent (In Situ apoptosis detection kit from Boehringer Mannheim, Germany) for 60 min at 37° C., and examined by fluorescence microscopy. Total numbers of cells were counted by staining the cells with methylene blue. The number of apoptotic cells was counted in ten randomly selected fields (magnification of ×40). The apototic index (AI) was calculated as the number of apoptotic cells×100/total number of nucleated cells.
# IL-18 = IL-18 production by cultured intestinal loops; type: cell-based, mice; settings: Example 20; 400 and 800 μg/ml; 48 h; vs bovine serum albumin control protein
# Procedure: Cytokine levels in the supernatants of homogenates of the small intestine were determined using a “sandwich” ELISA kit (Endogen, Woburn, Mass.). They were detected within standard curve ranges of 15-375 pg/ml for IL-4, 0-2450 pg/ml for IL-5, 15-1000 pg/ml for TNF-α, 0-3000 pg/ml for IFN-γ, 37-3000 pg/ml for IL-10, 31.3-2000 pg/ml for IL-12, and 31.3-2000 pg/ml for IL-18, respectively. Quantification of nitrite, indicative of NO production, was carried out by the Griess reaction (Sigma, USA). The results are expressed as the mean nitrite concentration (μM)±SD.
# 100% Fe-saturated Lf, natural Lf (less than 20% iron saturated), and bovine serum albumin control were added at 400 and 800 μg/ml to intestinal loops (2.5 cm segments of the small intestine) prepared from healthy 6 to 7 week-old female mice, which were kept in culture for 48 h. IL-18 levels released by the intestinal loops, and present in the supernatants of homogenates of the small intestine were determined using a “sandwich” ELISA kit as described above.
molecule,measurement,setting,value
"iron-saturated bovine lactoferrin: Iron-saturated bovine lactoferrin extract (100% saturated) prepared from natural bLf (protein, iron-saturated; Bovine Lactoferrin, Iron-saturated bovine lactoferrin extract (100% saturated) prepared from natural bLf) APRKNVRWCTISQPEWFKCRRWQWRMKKLGAPSITCVRRAFALECIRAIAEKKADAVTLDGGMVFEAGRDPYKLRPVAAEIYGTKESPQTHYYAVAVVKKGSNFQLDQLQGRKSCHTGLGRSAGWIIPMGILRPYLSWTESLEPLQGAVAKFFSASCVPCIDRQAYPNLCQLCKGEGENQCACSSREPYFGYSGAFKCLQDGAGDVAFVKETTVFENLPEKADRDQYELLCLNNSRAPVDAFKECHLAQVPSHAVVARSVDGKEDLIWKLLSKAQEKFGKNKSRSFQLFGSPPGQRDLLFKDSALGFLRIPSKVDSALYLGSRYLTTLKNLRETAEEVKARYTRVVWCAVGPEEQKKCQQWSQQSGQNVTCATASTTDDCIVLVLKGEADALNLDGGYIYTAGKCGLVPVLAENRKSSKHSSLDCVLRPTEGYLAVAVVKKANEGLTWNSLKDKKSCHTAVDRTAGWNIPMGLIVNQTGSCAFDEFFSQSCAPGADPKSRLCALCAGDDQGLDKCVPNSKEKYYGYTGAFRCLAEDVGDVAFVKNDTVWENTNGESTADWAKNLNREDFRLLCLDGTRKPVTEAQSCHLAVAPNHAVVSRSDRAAHVKQVLLHQQALFGKNGKNCPDKFCLFKSETKNLLFNDNTECLAKLGGRPTYEEYLGTEYVTAIANLKKCSTSPLLEACAFLTR",state of bovine lactoferrin in plasma,"[1]; Example 9, Western blot",largely undegraded
same,75 kDa band characteristic of lactoferrin in plasma,"[1]; Example 9, Western blot of plasma",present
same,75 kDa band and partially degraded products in tumour and small intestine,"[1]; Example 10, homogenates",present in homogenates of both the tumour and small intestine
same,bovine lactoferrin of 75 kDa in organs,"[1]; Example 11, organ homogenates","present in all regions of the intestine, and in the liver, but it was also present in lesser amounts in spleen, heart, lung, kidney, and brain"
same,RBCs,[2],8.2 ± 2.5 ×10^6/mm^3
same,WBCs,[2],3.5 ± 1.2 ×10^3/mm^3
same,increase in tumour cell apoptosis induced by sera,[3],300%
same,increase in the levels of IL-18 in the intestine,IL-18,10 fold
